# Results as given in patent US20240301062A1 (BEIGENE SWITZERLAND, published 2024).
# Positions count from the first letter of the chain named. Names may count otherwise. “And” between values parts separate entries of the source, which are not always exact repeats. Equal entries are not always repeated.
# T1: human claudin 6 (CLDN6) (human, UniProt P56747 1-220)
# T1 construct: also called human CLDN6; hCLDN6
# T1 sequence: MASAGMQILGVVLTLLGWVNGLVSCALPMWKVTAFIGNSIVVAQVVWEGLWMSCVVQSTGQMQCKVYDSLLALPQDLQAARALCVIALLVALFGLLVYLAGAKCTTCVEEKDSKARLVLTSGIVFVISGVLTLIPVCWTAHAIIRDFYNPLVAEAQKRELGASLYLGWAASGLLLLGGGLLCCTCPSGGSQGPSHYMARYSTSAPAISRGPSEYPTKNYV
# T2: mouse CLDN6 (mouse, UniProt Q9Z262 1-219)
# T2 construct: whole, on cells
# T2 sequence (looked up): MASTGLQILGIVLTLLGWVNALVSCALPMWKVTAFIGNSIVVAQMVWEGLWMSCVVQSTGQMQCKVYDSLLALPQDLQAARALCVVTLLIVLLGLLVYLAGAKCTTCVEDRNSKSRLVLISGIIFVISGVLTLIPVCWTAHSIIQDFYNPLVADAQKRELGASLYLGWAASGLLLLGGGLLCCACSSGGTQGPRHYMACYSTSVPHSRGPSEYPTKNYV
# B1: BG87P-21 (antibody, V domains shown)
# VH: QVQLVQSGAEVKKPGASVKVSCKASGYSFTDYHINWVRQAPGQRLEWMGWIYPGSGYTKYNEKFKGRVTITRDTSASTAYMELSSLRSEDTAVYYCARSGIYHYVSSYYFDHWGKGTTVTVSS
# VL: DIQMTQSPSTLSASVGDRVTITCKASQDVGTAVAWYQQKPGKAPKLLIYWASTRHTGVPSRFSGSGSGTEFTLTISSLQPDDFATYYCQQYSSYTFGGGTKVEIK
# B2: BG87P-32 (antibody, V domains shown)
# VH: B1 VH with V5Q, V11T, P41S, W50Y, Y57H, Y60K
# VL: B1 VL with V29A, T31S
# notes: Solubility engineering variant of BG87P-21
# B3: BG87P-31 (antibody, V domains shown)
# VH: B1 VH with V5Q, V11T, P41S, W50Y, Y57H, Y60K
# VL: B1 VL with V29A, T31S, Y49K
# notes: as for B2
# B4: BG87P-26 (antibody, V domains shown)
# VH: B1 VH with V2I, Y95F
# VL: B1 VL
# B5: BG87P-z0 (antibody, V domains shown)
# VH: B1 VH with S28T, G66V
# VL: B1 VL
# B6: BG87P-27 (antibody, V domains shown)
# VH: B1 VH with I70L, Y95F
# VL: B1 VL
# B7: BG87P-23 (antibody, V domains shown)
# VH: B1 VH with V2I
# VL: B1 VL
# B8: BG87P-24 (antibody, V domains shown)
# VH: B1 VH with I70L
# VL: B1 VL
# B9: BG87P-25 (antibody, V domains shown)
# VH: B1 VH with V2I, I70L
# VL: B1 VL
# B10: BG87P-33 (antibody, V domains shown)
# VH: EVQLQESGGGLVQPGGSLRLSCAASGYSFTDYHINWVRQAPGKGLEWVSYIYPGSGHTKYNEKFKGRFTISRDTSKNTAYLQMNSLRAEDTAVYYCARSGIYHYVSSYYFDHWGQGTLVTVSS
# VL: B1 VL with V29A, T31S
# notes: Framework-swapped variant; also called BG87-33
# B11: BG87P-22 (antibody, V domains shown)
# VH: B1 VH with Y95F
# VL: B1 VL
# B12: BG87P-m2 (antibody, V domains shown)
# VH: QIQLQQSGPELVKPGASVKISCKASGYSFTDYHINWVKQRPGQGLEWIGWIYPGSGYTKYNEKFKVKATLTVDTSSSTAYMHLTSLTSEDSAVYFCARSGIYHYVSSYYFQHWGQGTTLTVSS
# VL: DIVMTQSHTFMSTSVGDRVSITCKASQDVGTAVAWYQQKPGQSPKLLIYWASTRHTGVPDRFTGSGSGTDFTLTISNVQSEDLADYFCQQYSSYTFGGGTKLEIK
# notes: PTM removal variant of chBG87P; constant regions not restated (parent: human IgG1/kappa)
# B13: BG87P-m4 (antibody, V domains shown)
# VH: B12 VH with H33A, Q111D
# VL: B12 VL
# notes: Variant of chBG87P with H33A; constant regions not restated (parent: human IgG1/kappa)
# B14: BG87P-m3 (antibody, V domains shown)
# VH: B12 VH with V66G, Q111D
# VL: B12 VL
# notes: PTM removal variant of chBG87P (VH V65G); constant regions not restated (parent: human IgG1/kappa)
# Experiments:
# human claudin 6 (CLDN6) [1] = molecular target: T1, human claudin 6 (CLDN6); assay: FACS, HEK293-hCLDN6 cells
# cyno CLDN6 [2] = molecular target: T3, cyno CLDN6 (cyno); assay: FACS, HEK293T_cyno-CLDN6 cells
# T3 construct: whole, on cells; also called cynomolgus CLDN6
# cyno CLDN6 [3] = molecular target: T3, cyno CLDN6; assay: FACS, HEK293T-cyno-CLDN6 cells
# mouse CLDN6 = molecular target: T2, mouse CLDN6; assay: flow cytometry on CHOK1/mouse CLDN6 cells, MFI(PE)
# human claudin 6 (CLDN6) [4] = molecular target: T1, human claudin 6 (CLDN6); assay: FACS, HEK293T-hCLDN6 cells
# human claudin 6 (CLDN6) [5] = molecular target: T1, human claudin 6 (CLDN6); assay: FACS, PA-1 cells (endogenous CLDN6)
# Experimental: (§1) For affinity determination, CLDN6 over-expressing HEK293T cells and cancer cell line PA-1 which express high levels of human CLDN6 were used to evaluate the binding activity of BG87P related engineering variants. Live cells were seeded in 96-well plate, and were incubated with a series of dilutions of chBG87P and engineered variants thereof. Goat anti-human IgG was used as second antibody to detect antibody binding to the cell surface. EC50 values for dose-dependent binding to CLDN6 expressing cell lines were determined by fitting the dose-response data to the four-parameter logistic model with GraphPad Prism. Cell binding activity of 1st round of BG87P humanization variants against HEK293T/human CLDN6 were compared to chBG87P and shown in FIG. 1A.
# human claudin 6 (CLDN6) [6] = molecular target: T1, human claudin 6 (CLDN6); assay: flow cytometry on HEK293T/human CLDN6 cells, goat anti-human IgG secondary, MFI(PE)
# Experimental: as §1
# cyno CLDN6 [7] = molecular target: T3, cyno CLDN6; assay: flow cytometry on CHOK1/cyno CLDN6 cells, MFI(PE)
# human claudin 6 (CLDN6) [8] = molecular target: T1, human claudin 6 (CLDN6); assay: FACS, HEK293T/human CLDN6 cells
# Experimental: as §1
# Beginning with the chBG87P antibody and BG87P-Bz0, several additional amino acid changes in the CDR regions of both VH and VL were made to further improve the biophysical properties for therapeutics use in human. The considerations included removing post translational modifications (PTM), improved heat stability (Tm), while maintaining binding activities, the resulted variants are BG87P-m1 (VH SEQ ID NO: 31 and VL SEQ ID NO: 8), BG87P-m2 (VH SEQ ID NO: 32 and VL SEQ ID NO: 8), BG87P-m3 (VH SEQ ID NO: 33 and VL SEQ ID NO: 8), and BG87P-m4 (VH SEQ ID NO: 34 and VL SEQ ID NO: 8) and BG87P-m5 (VH SEQ ID NO: 35 and VL SEQ ID NO: 14), BG87P-m6 (VH SEQ ID NO: 36 and VL SEQ ID NO 14), BG87P-m7 (VH SEQ ID NO: 37 and VL SEQ ID NO: 14), and BG87P-m8 (VH SEQ ID NO: 38 and VL SEQ ID NO: 14). Cell binding activity of chBG87P and BG87P-Bz0 related PTM removal variants against HEK293T/human CLDN6 was compared with chBG87P and BG87-Bz0, respectively ([…]). Cell binding affinity (EC50) and Emax (MFI) was normalized to chBG87P for directly comparison and ranking (Table 7).
Binder,FACS-Ec50 ratio to BG87P (human claudin 6 (CLDN6) [1]) [ratio],EC50 (cyno CLDN6 [2]) [nM],FACS Emax ratio to BG87P (cyno CLDN6 [3]) [ratio],binding result (mouse CLDN6),FACS Emax ratio to BG87P (human claudin 6 (CLDN6) [4]) [ratio],EC50 (human claudin 6 (CLDN6) [5]),Emax ratio to BG87P (human claudin 6 (CLDN6) [5]) [ratio],EC50 (read off the curve) (human claudin 6 (CLDN6) [6]) [nM],EC50 (read off the curve) (cyno CLDN6 [7]) [nM],EC50 (human claudin 6 (CLDN6) [8]) [nM],Emax ratio to BG87P (human claudin 6 (CLDN6) [8]) [ratio],Top MFI Mean (human claudin 6 (CLDN6) [8]) [MFI],Top MFI Mean (human claudin 6 (CLDN6) [5]) [MFI]
B1,0.91,8.9,0.8,binds,0.66,2.8 nM and 2.62 nM,0.61,~10,~9,3.07,0.78,149000,–
B2,1.31,–,–,–,0.63,–,–,–,–,–,–,–,–
B3,1.6,–,–,–,0.76,–,–,–,–,–,–,–,–
B4,–,–,–,–,–,2.3 nM and 2.52 nM,0.54,–,–,2.3,0.77,148000,68000
B5,–,–,–,–,–,3.25 nM,0.43,–,–,2.45,0.5,95600,53200
B6,–,–,–,–,–,1.68 nM,0.53,–,–,2,0.68,131000,66700
B7,–,–,–,–,–,2.49 nM,0.58,–,–,2.43,0.77,148000,72500
B8,–,–,–,–,–,2.27 nM,0.5,–,–,2.16,0.73,141000,62400
B9,–,–,–,–,–,2.34 nM,0.59,–,–,2.33,0.74,143000,73700
B10,2.45,25.8,0.75,binds,0.91,–,–,–,–,–,–,–,–
B11,–,–,–,–,–,3.01 nM and 3 nM,0.54,–,–,2.12,0.71,137000,–
B12,–,–,–,–,–,–,–,–,–,2.51,1.05,202000,–
B13,–,–,–,–,–,–,–,–,–,11.8,0.74,143000,–
B14,–,–,–,–,–,–,–,–,–,2.32,1.18,227000,–
